# Measurements as given in patent publication US20240059799A1 (Pfizer, published 2024).
# Positions count from the first letter of the chain named.
# T1: recombinant human TL1A (human, UniProt O95150 71-251)
# T1 construct: homotrimer; biotinylated for SPR capture; the ELISA paragraphs say only 'recombinant TL1A'; also called TNFSF15
# T1 chain: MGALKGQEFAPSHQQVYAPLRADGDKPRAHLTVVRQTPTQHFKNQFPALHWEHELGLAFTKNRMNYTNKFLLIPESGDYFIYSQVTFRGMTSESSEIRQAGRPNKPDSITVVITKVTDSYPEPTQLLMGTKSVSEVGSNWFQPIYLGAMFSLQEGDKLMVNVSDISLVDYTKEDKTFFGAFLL
# B1: TL1A-0026 (antibody, IgG1, V domains shown)
# VH: QVQLVQSGAEVKKPGASVKVSCKASGYDFTYYGISWVRQAPGQGLEWMGWISTYNGNEHYADSLQGRVTMTTDTSTRTAYMELRSLRSDDTAVYYCARENYYGSGAYRGGMDVWGQGTTVTVSS
# VL: EIVLTQSPATLSLSPGERATLSCRASQSVSSYLAWYQQKPGQAPRLLIYDASNRATGIPARFSGSGSGTDFTLTISSLEPEDFAVYYCQQRSNWPWTFGQGTKVEIKR
# notes: IgG1/kappa variant of TL1A-0002
# B2: TL1A-0074 (antibody, IgG1, V domains shown)
# VH: B1 VH with G56T, E58T, D62P
# VL: B1 VL
# notes: as for B1
# B3: TL1A-0092 (antibody, IgG1, V domains shown)
# VH: B1 VH with G56T, N57V, E58T, D62P
# VL: B1 VL
# notes: as for B1
# B4: TL1A-0094 (antibody, IgG1, V domains shown)
# VH: B1 VH with E58T, D62R, S63M, N100S
# VL: B1 VL
# notes: as for B1
# B5: TL1A-0076 (antibody, IgG1, V domains shown)
# VH: B1 VH with G56D, E58T, D62P
# VL: B1 VL
# notes: as for B1
# B6: TL1A-0061 (antibody, IgG1, V domains shown)
# VH: B1 VH with Y27F, E58T, D62R, S63M
# VL: B1 VL
# notes: as for B1
# B7: TL1A-0093 (antibody, IgG1, V domains shown)
# VH: B1 VH with T53A, G56A, E58T, D62P
# VL: B1 VL
# notes: as for B1
# B8: TL1A-0087 (antibody, IgG1, V domains shown)
# VH: B1 VH with T53A, E58T, D62P
# VL: B1 VL
# notes: as for B1
# B9: TL1A-0080 (antibody, IgG1, V domains shown)
# VH: B1 VH with N55G, E58T, D62R, S63M
# VL: B1 VL
# notes: as for B1
# B10: TL1A-0068 (antibody, IgG1, V domains shown)
# VH: B1 VH with Y31K, E58T, D62R, S63M
# VL: B1 VL
# notes: as for B1
# B11: TL1A-0079 (antibody, IgG1, V domains shown)
# VH: B1 VH with N55Q, E58T, D62R, S63M
# VL: B1 VL
# notes: as for B1
# B12: TL1A-0086 (antibody, IgG1, V domains shown)
# VH: B1 VH with I51A, E58T, D62P
# VL: B1 VL
# notes: as for B1
# B13: TL1A-0071 (antibody, IgG1, V domains shown)
# VH: B1 VH with I34V, E58T, D62R, S63M
# VL: B1 VL
# notes: as for B1
# B14: TL1A-0088 (antibody, IgG1, V domains shown)
# VH: B1 VH with N55G, E58T, D62P
# VL: B1 VL
# notes: as for B1
# B15: TL1A-0030 (antibody, IgG1, V domains shown)
# VH: B1 VH with E58T, D62R, S63M, A106E
# VL: B1 VL
# notes: as for B1
# B16: TL1A-0084 (antibody, IgG1, V domains shown)
# VH: B1 VH with I51A, E58T, D62R, S63M
# VL: B1 VL
# notes: as for B1
# B17: TL1A-0027 (antibody, IgG1, V domains shown)
# VH: B1 VH with T53A, E58T, H59N, D62Q, S63K
# VL: B1 VL
# notes: as for B1
# B18: TL1A-0081 (antibody, IgG1, V domains shown)
# VH: B1 VH with T53A, E58T, D62R, S63M
# VL: B1 VL
# notes: as for B1
# B19: TL1A-0031 (antibody, IgG1, V domains shown)
# VH: B1 VH with E58T, D62R, S63M, A106D
# VL: B1 VL
# notes: as for B1
# B20: TL1A-0095 (antibody, IgG1, V domains shown)
# VH: B1 VH with E58T, D62R, S63M, N100T
# VL: B1 VL
# notes: as for B1
# B21: TL1A-0089 (antibody, IgG1, V domains shown)
# VH: B1 VH with G56T, N57G, E58T, D62Q, S63K
# VL: B1 VL
# notes: as for B1
# B22: TL1A-0090 (antibody, IgG1, V domains shown)
# VH: B1 VH with G56T, N57G, E58T, D62P
# VL: B1 VL
# notes: as for B1
# B23: TL1A-0082 (antibody, IgG1, V domains shown)
# VH: B1 VH with T53A, E58T, D62Q, S63K
# VL: B1 VL
# notes: as for B1
# B24: TL1A-0029 (antibody, IgG1, V domains shown)
# VH: B1 VH with E58T, D62R, S63M, Y101L
# VL: B1 VL
# notes: as for B1
# B25: TL1A-0067 (antibody, IgG1, V domains shown)
# VH: B1 VH with Y31F, E58T, D62R, S63M
# VL: B1 VL
# notes: as for B1
# B26: TL1A-0063 (antibody, IgG1, V domains shown)
# VH: B1 VH with T30S, E58T, D62R, S63M
# VL: B1 VL
# notes: as for B1
# B27: TL1A-0040 (antibody, IgG1, V domains shown)
# VH: B1 VH with E58T, D62R, S63M, A106D, Y107H
# VL: B1 VL
# notes: as for B1
# B28: TL1A-0085 (antibody, IgG1, V domains shown)
# VH: B1 VH with I51A, E58T, D62Q, S63K
# VL: B1 VL
# notes: as for B1
# B29: TL1A-0073 (antibody, IgG1, V domains shown)
# VH: B1 VH with G56T, E58T, D62Q, S63K
# VL: B1 VL
# notes: as for B1
# B30: TL1A-0091 (antibody, IgG1, V domains shown)
# VH: B1 VH with G56T, N57V, E58T, D62Q, S63K
# VL: B1 VL
# notes: as for B1
# B31: TL1A-0062 (antibody, IgG1, V domains shown)
# VH: B1 VH with F29Y, E58T, D62R, S63M
# VL: B1 VL
# notes: as for B1
# B32: TL1A-0033 (antibody, IgG1, V domains shown)
# VH: B1 VH with E58T, D62R, S63M, Y107F
# VL: B1 VL
# notes: as for B1
# B33: TL1A-0069 (antibody, IgG1, V domains shown)
# VH: B1 VH with Y32H, E58T, D62R, S63M
# VL: B1 VL
# notes: as for B1
# B34: TL1A-0083 (antibody, IgG1, V domains shown)
# VH: B1 VH with N55G, E58T, D62Q, S63K
# VL: B1 VL
# notes: as for B1
# B35: TL1A-0028 (antibody, IgG1, V domains shown)
# VH: B1 VH with E58T, D62R, S63M, Y102W
# VL: B1 VL
# notes: as for B1
# B36: TL1A-0038 (antibody, IgG1, V domains shown)
# VH: B1 VH with E58T, D62R, S63M, A106D, Y107F
# VL: B1 VL
# notes: as for B1
# B37: TL1A-0096 (antibody, IgG1, V domains shown)
# VH: B1 VH with E58T, D62R, S63M, N100V
# VL: B1 VL
# notes: as for B1
# Target: T1, recombinant human TL1A
# Experiment: competition ELISA vs bio-TL1A-0002
# Method: For this competition ELISA assay procedure, 96-well high binding plates (Corning, product number 3590) were coated with 1 μg/mL recombinant TL1A in 100 μL/well in Phospate Buffered Saline (PBS) overnight at 4° C. Plates were then blocked in PBS+0.02% casein solution and washed with PBS+0.05% Tween-20 following standard ELISA protocol. […] Plates were washed with PBS+0.05% Tween-20 following standard ELISA protocol, and Streptavidin-HRP (Southern Biotech, product number 7100-05) diluted to 1:10,000 in assay buffer was added to plates and incubated for 25-30 minutes at room temperature. Next, the plates were washed with PBS+0.05% Tween-20 following standard ELISA protocol, and then TMB substrate (BioFX Laboratories, catalog number TMBW-0100-01) was added to plates. Reactions were stopped after approximately 5 minutes by adding 0.18 M ortho-phosphoric acid to each well and absorbance was read at 450 nm.
Bioactivity relative to TL1A-0002,IC50,Binder
2 fold,8.9 nM,B1
1 fold,4.5 nM,B2
1.2 fold,5.2 nM,B3
1.2 fold,5.5 nM,B4
1.2 fold,5.4 nM,B5
1 fold,4.6 nM,B6
1.3 fold,5.9 nM,B7
1.1 fold,4.8 nM,B8
1.1 fold,5 nM,B9
1 fold,4.6 nM,B10
1.3 fold,5.8 nM,B11
1.1 fold,5 nM,B12
0.9 fold,3.9 nM,B13
1.4 fold,6.5 nM,B14
1.4 fold,6.1 nM,B15
1 fold,4.5 nM,B16
1.9 fold,8.3 nM,B17
0.9 fold,4.1 nM,B18
1.6 fold,7.4 nM,B19

Bioactivity relative to TL1A-0002,IC50,Binder
2 fold,8.8 nM,B20
1.2 fold,5.4 nM,B21
1 fold,4.5 nM,B22
1.2 fold,5.2 nM,B23
1.7 fold,7.8 nM,B24
1.1 fold,5.1 nM,B25
0.9 fold,4.1 nM,B26
1 fold,4.7 nM,B27
1 fold,4.7 nM,B28
1.1 fold,5 nM,B29
1.2 fold,5.4 nM,B30
0.9 fold,4 nM,B31
0.8 fold,3.6 nM,B32
0.9 fold,4.1 nM,B33
1.5 fold,6.8 nM,B34
1.2 fold,5.4 nM,B35
1.6 fold,7.2 nM,B36
2.3 fold,10.3 nM,B37
